Reference: patent US20250312499A1, “KISSPEPTIN RECEPTOR (KISS1R) TARGETED THERAPEUTICS AND USES THEREOF” (priority 2024, published 2025)
Numbered stars: 1 amine (or outer) side, 2 acyl side, 3 side chain; on linkers, the order of the positions; unused ones are H or OH. Square brackets hold non-standard residues; d marks the D form. Ends that are not written are not given here. * marks the point of attachment. X2 = 4‑amino‑1‑((3-fluoro-4-methylbenzyl)glycyl)piperidine‑4‑carboxylic acid, Cc1ccc(CN(CC(=O)N2CCC(N[*:1])(C(=O)[*:2])CC2)[*:3])cc1F; Apc(4-OMe) = 4-aminopiperidine-4-carboxylic acid residue N1-acylated by a methoxy-bearing benzylglycyl; DOTA = O=C(O)CN1CCN(CC(=O)O)CCN(CC(=O)*)CCN(CC(=O)O)CC1; Api(1-amidino) = N=C(N)N1CCC(N)(C(=O)O)CC1; d(γGlu) = O=C(O)[C@@H](CCC(=O)[*:2])N[*:1]; Phe(3-F) = N[C@@H](Cc1cccc(F)c1)C(=O)O; εLys = N[C@@H](CCCCN[*:1])C(=O)[*:2]; Adipoyl = O=C(CCCCC(=O)[*:2])[*:1]; 4Pal = N[C@@H](Cc1ccncc1)C(=O)O; d4Pal = N[C@H](Cc1ccncc1)C(=O)O; 4Amb = NCc1ccc(C(=O)O)cc1; Octanoyl = CCCCCCCC(=O)*; APM = not defined here; Ahx = NCCCCCC(=O)O; azaGly = NNC(=O)O

B1: Compound 149 (peptide)
peptide: {DOTA-4Amb}-GY[Ahx][dY][dW]NTF[azaGly]L[X2]W-NH2
SMILES: Cc1ccc(CNCC(=O)N2CCC(NC(=O)[C@H](CC(C)C)NC(=O)NNC(=O)[C@H](Cc3ccccc3)NC(=O)[C@@H](NC(=O)[C@H](CC(N)=O)NC(=O)[C@@H](Cc3c[nH]c4ccccc34)NC(=O)[C@@H](Cc3ccc(O)cc3)NC(=O)CCCCCNC(=O)[C@H](Cc3ccc(O)cc3)NC(=O)CNC(=O)c3ccc(CNC(=O)CN4CCN(CC(=O)O)CCN(CC(=O)O)CCN(CC(=O)O)CC4)cc3)[C@@H](C)O)(C(=O)N[C@@H](Cc3c[nH]c4ccccc34)C(N)=O)CC2)cc1F
B2: Compound 151 (peptide)
peptide: {DOTA}-GY[dW]NTF[azaGly]L[X2]W-NH2
SMILES: Cc1ccc(CNCC(=O)N2CCC(NC(=O)[C@H](CC(C)C)NC(=O)NNC(=O)[C@H](Cc3ccccc3)NC(=O)[C@@H](NC(=O)[C@H](CC(N)=O)NC(=O)[C@@H](Cc3c[nH]c4ccccc34)NC(=O)[C@H](Cc3ccc(O)cc3)NC(=O)CNC(=O)CN3CCN(CC(=O)O)CCN(CC(=O)O)CCN(CC(=O)O)CC3)[C@@H](C)O)(C(=O)N[C@@H](Cc3c[nH]c4ccccc34)C(N)=O)CC2)cc1F
B3: Compound 156 (peptide)
peptide: {DOTA}-[d(γGlu)]F[azaGly]L[X2]W-NH2
SMILES: Cc1ccc(CNCC(=O)N2CCC(NC(=O)[C@H](CC(C)C)NC(=O)NNC(=O)[C@H](Cc3ccccc3)NC(=O)CC[C@@H](NC(=O)CN3CCN(CC(=O)O)CCN(CC(=O)O)CCN(CC(=O)O)CC3)C(=O)O)(C(=O)N[C@@H](Cc3c[nH]c4ccccc34)C(N)=O)CC2)cc1F
B4: Compound 158 (peptide)
peptide: {DOTA-APM}-NTF[azaGly]L[X2]W-NH2
modifications: reading uncertain
B5: Compound 159 (peptide)
peptide: {DOTA-APM}-ENT[Phe(3-F)][azaGly]L[X2]W-NH2
modifications: reading uncertain
B6: Compound 160 (peptide)
peptide: {DOTA-(1r,4r)‑4‑(aminomethyl)cyclohexane‑1‑carbonyl}-ENT[Phe(3-F)][azaGly]L[X2]W-NH2
B7: Compound 161 (peptide)
peptide: {DOTA-(1r,4r)‑4‑(aminomethyl)cyclohexane‑1‑carbonyl}-[dE]NT[Phe(3-F)][azaGly]L[X2]W-NH2
B8: Compound 164 (peptide)
peptide: {DOTA-2‑(4-aminopiperidin-1-yl)acetyl}-KNT[Phe(3-F)][azaGly]L[X2]W-NH2
B9: Compound 6 (peptide)
peptide: {DOTA-Ahx}-[dY][dW]NTF[azaGly]L[Api(1-amidino)]W-NH2
SMILES: CC(C)C[C@H](NC(=O)NNC(=O)[C@H](Cc1ccccc1)NC(=O)[C@@H](NC(=O)[C@H](CC(N)=O)NC(=O)[C@@H](Cc1c[nH]c2ccccc12)NC(=O)[C@@H](Cc1ccc(O)cc1)NC(=O)CCCCCNC(=O)CN1CCN(CC(=O)O)CCN(CC(=O)O)CCN(CC(=O)O)CC1)[C@@H](C)O)C(=O)NC1(C(=O)N[C@@H](Cc2c[nH]c3ccccc23)C(N)=O)CCN(C(=N)N)CC1
B10: Compound 167 (peptide)
peptide: NTF[azaGly]L[X2]W-NH2
modifications: not fully specified (N-terminus)
B11: Compound 168 (peptide)
peptide: {DOTA-4Amb-Met-Trp-εLys-Adipoyl}-NTF[azaGly]L[X2]W-NH2
B12: Compound 169 (peptide)
peptide: {DOTA-Ahx}-NT[Phe(3-F)][azaGly]L[X2][4Pal]-NH2
SMILES: Cc1ccc(CNCC(=O)N2CCC(NC(=O)[C@H](CC(C)C)NC(=O)NNC(=O)[C@H](Cc3cccc(F)c3)NC(=O)[C@@H](NC(=O)[C@H](CC(N)=O)NC(=O)CCCCCNC(=O)CN3CCN(CC(=O)O)CCN(CC(=O)O)CCN(CC(=O)O)CC3)[C@@H](C)O)(C(=O)N[C@@H](Cc3ccncc3)C(N)=O)CC2)cc1F
B13: Compound 170 (peptide)
peptide: {2,2',2''‑(10-(2-((((1s,4s)-4-carboxycyclohexyl)methyl)amino)-2-oxoethyl)-1,4,7,10-tetraazacyclododecane-1,4,7-triyl)triacetic acid}-ENT[Phe(3-F)][azaGly]L[X2][4Pal]-NH2
B14: Compound 181 (peptide)
peptide: Octanoyl-[dY]K(DOTA)NTF[azaGly]L[X2]W-NH2
SMILES: CCCCCCCC(=O)N[C@H](Cc1ccc(O)cc1)C(=O)N[C@@H](CCCCNC(=O)CN1CCN(CC(=O)O)CCN(CC(=O)O)CCN(CC(=O)O)CC1)C(=O)N[C@@H](CC(N)=O)C(=O)N[C@H](C(=O)N[C@@H](Cc1ccccc1)C(=O)NNC(=O)N[C@@H](CC(C)C)C(=O)NC1(C(=O)N[C@@H](Cc2c[nH]c3ccccc23)C(N)=O)CCN(C(=O)CNCc2ccc(C)c(F)c2)CC1)[C@@H](C)O
B15: Compound 182 (peptide)
peptide: {Me‑PEG25‑C(:O)}-[dY]K(DOTA)NTF[azaGly]L[Api(1-amidino)]W-NH2
B16: Compound 192 (peptide)
peptide: {DOTA-trans‑4‑(aminomethyl)cyclohexane‑1‑carboxylic acid}-F[azaGly]L[X2]W-NH2
B17: Compound 193 (peptide)
peptide: {DOTA}-G[dY][d4Pal]NTF[azaGly]L[X2]Y-NH2
SMILES: Cc1ccc(CNCC(=O)N2CCC(NC(=O)[C@H](CC(C)C)NC(=O)NNC(=O)[C@H](Cc3ccccc3)NC(=O)[C@@H](NC(=O)[C@H](CC(N)=O)NC(=O)[C@@H](Cc3ccncc3)NC(=O)[C@@H](Cc3ccc(O)cc3)NC(=O)CNC(=O)CN3CCN(CC(=O)O)CCN(CC(=O)O)CCN(CC(=O)O)CC3)[C@@H](C)O)(C(=O)N[C@@H](Cc3ccc(O)cc3)C(N)=O)CC2)cc1F
B18: Compound 195 (peptide)
peptide: {3‑(2-(2-(3-(p-tolyl)propanamido)ethoxy)ethoxy)propanoic acid}-[dY]K(DOTA)NTF[azaGly]L[Api(1-amidino)]W-NH2
B19: Compound 196 (peptide)
peptide: {3‑(2-(2-(3-(4-iodophenyl)propanamido)ethoxy)ethoxy)propanoic acid}-[dY]K(DOTA)NTF[azaGly]L[Api(1-amidino)]W-NH2
B20: Compound 197 (peptide)
peptide: {3‑(2-(2-methoxyethoxy)ethoxy)propanoic acid}-[dY]K(DOTA)NTF[azaGly]L[Api(1-amidino)]W-NH2
B21: Compound 203 (peptide)
peptide: F[azaGly]L[X2]W-NH2
modifications: not fully specified (N-terminus)
B22: Compound 205 (peptide)
peptide: {DOTA-4Amb}-NTF[azaGly]L[X2]Y-NH2
SMILES: Cc1ccc(CNCC(=O)N2CCC(NC(=O)[C@H](CC(C)C)NC(=O)NNC(=O)[C@H](Cc3ccccc3)NC(=O)[C@@H](NC(=O)[C@H](CC(N)=O)NC(=O)c3ccc(CNC(=O)CN4CCN(CC(=O)O)CCN(CC(=O)O)CCN(CC(=O)O)CC4)cc3)[C@@H](C)O)(C(=O)N[C@@H](Cc3ccc(O)cc3)C(N)=O)CC2)cc1F
B23: Compound 206 (peptide)
peptide: {DOTA-4Amb}-[dE]NTF[azaGly]L[X2]Y-NH2
SMILES: Cc1ccc(CNCC(=O)N2CCC(NC(=O)[C@H](CC(C)C)NC(=O)NNC(=O)[C@H](Cc3ccccc3)NC(=O)[C@@H](NC(=O)[C@H](CC(N)=O)NC(=O)[C@@H](CCC(=O)O)NC(=O)c3ccc(CNC(=O)CN4CCN(CC(=O)O)CCN(CC(=O)O)CCN(CC(=O)O)CC4)cc3)[C@@H](C)O)(C(=O)N[C@@H](Cc3ccc(O)cc3)C(N)=O)CC2)cc1F
B24: Compound 213 (peptide)
peptide: {DOTA}-GY[4Amb]NTF[azaGly]L[X2]W-NH2
SMILES: Cc1ccc(CNCC(=O)N2CCC(NC(=O)[C@H](CC(C)C)NC(=O)NNC(=O)[C@H](Cc3ccccc3)NC(=O)[C@@H](NC(=O)[C@H](CC(N)=O)NC(=O)c3ccc(CNC(=O)[C@H](Cc4ccc(O)cc4)NC(=O)CNC(=O)CN4CCN(CC(=O)O)CCN(CC(=O)O)CCN(CC(=O)O)CC4)cc3)[C@@H](C)O)(C(=O)N[C@@H](Cc3c[nH]c4ccccc34)C(N)=O)CC2)cc1F
B25: Compound 218 (peptide)
peptide: {DOTA-APM}-ENT[beta‑(2-thienyl)alanine][azaGly]L[X2]W-NH2
modifications: reading uncertain
B26: Compound 232 (peptide)
peptide: {DOTA-4Amb}-[D‑3‑aminopentanedioic acid]NT[Phe(3-F)][azaGly]L[X2][4Pal]-NH2
B27: Compound 233 (peptide)
peptide: {DOTA-APM}-TF[azaGly]L[X2]W-NH2
modifications: reading uncertain
B28: Compound 234 (peptide)
peptide: {DOTA-APM}-ETF[azaGly]L[X2]W-NH2
modifications: reading uncertain
B29: Compound 235 (peptide)
peptide: {DOTA-Ahx}-NTF[azaGly]L[Apc(4-OMe)]F-NH2
B30: Compound 236 (peptide)
peptide: {DOTA-Ahx}-ENTF[azaGly]L[Apc(4-OMe)]F-NH2
B31: Compound 237 (peptide)
peptide: {DOTA}-ENTF[azaGly]L[Apc(4-OMe)]F-NH2

Target: human kisspeptin receptor (KISS1R) (human), Q969F8
Assay: radioligand competition, hKISS1R membranes; legend: A is <10 nM

human kisspeptin receptor (KISS1R) (human), Q969F8, sequence (Q969F8 whole entry): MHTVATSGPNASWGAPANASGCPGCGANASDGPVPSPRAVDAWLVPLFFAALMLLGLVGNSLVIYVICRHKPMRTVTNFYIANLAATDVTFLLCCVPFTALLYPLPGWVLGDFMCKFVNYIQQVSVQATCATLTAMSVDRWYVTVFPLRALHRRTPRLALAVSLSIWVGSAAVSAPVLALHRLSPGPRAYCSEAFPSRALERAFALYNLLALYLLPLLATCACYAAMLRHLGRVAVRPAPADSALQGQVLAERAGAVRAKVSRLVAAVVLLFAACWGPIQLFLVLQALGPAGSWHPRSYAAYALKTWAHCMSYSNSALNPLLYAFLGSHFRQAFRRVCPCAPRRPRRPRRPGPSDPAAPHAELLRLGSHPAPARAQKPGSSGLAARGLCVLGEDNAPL

Ki, < 10 nM:
B1
B2
B3
B4
B5
B6
B7
B8
B9
B10
B11
B12
B13
B14
B15
B16
B17
B18
B19
B20
B21
B22
B23
B24
B25
B26
B27
B28
B29
B30
B31
